Measured values: patent US12214052

Biological target: CD22
Assay: BLI

| Kd | Substance |
| --- | --- |
| 59 nM | Epratuzumab Fab |
| 51 nM | Epratuzumab Fab-Ferritin |
